“Also recorded” adds a separate entry of the source.

For one data set, the system named is CDT-2. Put plainly: Yeast cell-based xylodextrin uptake assay. Further details: species or system Neurospora crassa. The note with it: starting concentration 100 μM, 30 minutes. Here is the method:
(§1) S. cerevisiae was grown in an optimized minimum medium (oMM) lacking uracil into late log phase. The oMM contained 1.7 g/L YNB (Sigma, Y1251), 2-fold appropriate CSM dropout mixture, 10 g/L (NH4)2SO4, 1 g/L MgSO4.7H2O, 6 g/L KH2PO4, 100 mg/L adenine hemisulfate, 10 mg/L inositol, 100 mg/L glutamic acid, 20 mg/L lysine, 375 mg/L serine and 100 mM 4-morpholineethanesulfonic acid (MES), pH 6.0 (Lin et al., submitted). Cells were then harvested and washed three times with assay buffer (5 mM MES, 100 mM NaCl, pH 6.0) and resuspended to a final OD600 of 40. Substrate stocks were prepared in the same assay buffer at a concentration of 200 μM. Transport assays were initiated by mixing equal volumes of the cell suspension and the substrate stock. Reactions were incubated at 30° C. with continuous shaking for 30 minutes. Samples were centrifuged at 14,000 rpm at 4° C. for 5 minutes to remove yeast cells. 400 μL of each sample supernatant was transferred to an HPLC vial containing 100 μL of 0.5 M NaOH, and the concentration of the remaining substrate was measured by HPAEC as described below.
as §1, with “(Lin et al. 2014). Cells were” for “(Lin et al., submitted). Cells were”, “30 minutes. […] 400 μL” for “30 minutes. Samples were centrifuged at 14,000 rpm at 4° C. for 5 minutes to remove yeast cells. 400 μL”, “100 μL 0.5 M” for “100 μL of 0.5 M”

Data set [1] in a line: Xylose reductase assay of NcXR with xylodextrin. The note with it: in vitro, xylodextrins with degrees of polymerization 2 to 4; products up to xlt3. Format: biochemical, Neurospora crassa. Here is the method:
For the xylose reductase assays of S. stipitis XR and N. crassa XR, 1 μM of purified enzyme was incubated with 0.06% xylodextrin and 2 mM NADPH in 1×PBS at 30° C. Reactions were sampled at 30 min and quenched by heating at 99° C. for 10 min. The products were analyzed by LC-QToF as described below.
For the xylose reductase assays of NcXR, 1 μM of purified enzyme was incubated with 0.06% xylodextrin and 2 mM NADPH in 1×PBS at 30° C. Reactions were sampled at 30 min and quenched by heating at 99° C. for 10 min. The products were analyzed by LC-QToF as described below.

Data set [2] in a line: Activity of bacterial GH43-7 enzymes on xylobiose or xylosyl-xylitol. Format: biochemical. The note with it: purified enzyme; for β-xylosidase activity: xylobiose (X2) substrate; for xylosyl-xylitol hydrolase activity: xylosyl-xylitol (xlt2) substrate. On the procedure: Experiments were also conducted to further explore potential xylosyl-xylitol hydrolase activity of other β-xylosidases. […] To see if these proteins actually have xylosyl-xylitol hydrolase activity, purified B. subtilis GH43-7 and purified E. coli GH43-7 were incubated with xylobiose (X2) or xylosyl-xylitol (xlt2) and their activity on these substrates was analyzed. […] In summary, two GH43 enzymes from bacteria Bacillus subtilis (AAB41091.1) and Escherichia coli (WP_000406872.1) were tested and confirmed to both cleave xylosyl-xylitol.
S. cerevisiae strains transformed with pRS423_GH43-2, pRS423_GH43-7, or pRS313_NcXR were grown in oMM lacking histidine with 2% glucose until late log phase before harvesting by centrifugation. E. coli strains BL21DE3 transformed with pET302_BsGH43-7 or pET302_EcGH43-7 were grown in TB medium, induced with 0.2 mM IPTG at OD600 of 0.8, and harvested by centrifugation 12 hours after induction. Yeast or E. coli cell pellets were resuspended in a buffer containing 50 mM Tris-HCl, 100 mM NaCl, 0.5 mM DTT, pH 7.4 and protease inhibitor cocktail (Pierce). Cells were lysed with an Avestin homogenizer, and the clarified supernatant was loaded onto a HisTrap column (GE Healthcare). His-tagged enzymes were purified with an imidazole gradient, buffer-exchanged into 20 mM Tris-HCl, 100 mM NaCl, pH 7.4, and concentrated to 5 mg/mL.

Data set [3] is described as follows: β-xylosidase assay of GH43-2 and GH43-7 with xylosyl-xylitol and xylobiose. The note with it: purified enzyme. Format: biochemical, Neurospora crassa. On the procedure: For the β-xylosidase assay of GH43-2 with xylodextrins, 0.5 μM of purified enzyme was incubated with 0.1% in-house prepared xylodextrin or 1 mM xylobiose (Megazyme) in 1×PBS at 30° C. Reactions were sampled at 30 min and quenched by adding 5 volumes of 0.1 mM NaOH. The products were analyzed by HPAEC as described below. For pH profiling, acetate buffer at pH 4.0, 4.5, 5.0, 5.5, 6.0, and phosphate buffer at 6.5, 7.0, 7.5, 8 were added at a concentration of 0.1 M. For the β-xylosidase assay of GH43-2 and GH43-7 with xylosyl-xylitol, 10 μM of purified enzyme was incubated with 4.5 mM xylosyl-xylitol and 0.5 mM xylobiose in 20 mM MES buffer, pH=7.0, and 1 mM CaCl2 at 30° C. Reactions were sampled at 3 hours and quenched by heating at 99° C. for 10 min. The products were analyzed by ion-exclusion HPLC as described below.
For the β-xylosidase assay of GH43-2 with xylodextrins, 0.5 μM of purified enzyme was incubated with 0.1% in-house prepared xylodextrin or 1 mM xylobiose (Megazyme) in 1×PBS at 30° C. Reactions were sampled at 30 min and quenched by adding 5 volumes of 0.1 M NaOH. The products were analyzed by HPAEC as described below. […] The products were analyzed by ion-exclusion HPLC as described below.

On to `OC1OC[C@@H](O[C@@H]2OC[C@@H](O)[C@H](O)[C@H]2O)[C@H](O)[C@H]1O` (stereo partly shown) [xylobiose], for which the “import into S. cerevisiae strains expressing cdt-2” value in the data set with CDT-2 is “able to import”.

Take `OC1OC[C@@H](O[C@@H]2OC[C@@H](O[C@@H]3OC[C@@H](O[C@@H]4OC[C@@H](O)[C@H](O)[C@H]4O)[C@H](O)[C@H]3O)[C@H](O)[C@H]2O)[C@H](O)[C@H]1O` (stereo partly shown) [xylotetraose]: the “import into S. cerevisiae strains expressing cdt-2” value in the data set on CDT-2 was “able to import”.

In the case of `OC1OC[C@@H](O[C@@H]2OC[C@@H](O[C@@H]3OC[C@@H](O)[C@H](O)[C@H]3O)[C@H](O)[C@H]2O)[C@H](O)[C@H]1O` (stereo partly shown) [xylotriose], the “import into S. cerevisiae strains expressing cdt-2” value with CDT-2 is on record as “able to import”.

B1: XYR-1: xylose reductase from Neurospora crassa (protein)
chain: MVPAIKLNSGFDMPQVGFGLWKVDGSIASDVVYNAIKAGYRLFDGACDYGNEVECGQGVARAIKEGIVKREELFIVSKLWNTFHDGDRVEPIVRKQLADWGLEYFDLYLIHFPVALEYVDPSVRYPPGWHFDGKSEIRPSKATIQETWTAMESLVEKGLSKSIGVSNFQAQLLYDLLRYAKVRPATLQIEHHPYLVQQNLLNLAKAEGIAVTAYSSFGPASFREFNMEHAQKLQPLLEDPTIKAIGDKYNKDPAQVLLRWATQRGLAIIPKSSREATMKSNLNSLDFDLSEEDIKTISGFDRGIRFNQPTNYFSAENLWIFG
modifications: N. crassa
As to B1, in data set [1], the “production of xylosyl-xylitol oligomers from xylodextrin substrates” value is given as “able to directly produce xylosyl-xylitol oligomers; also recorded: generated xylosyl-xylitol products”.

B2: E. coli GH43-7: GH43 enzyme from bacteria Escherichia coli, homologous to GH43-7 (protein, listed as Escherichia coli)
chain: MEITNPILTGFNPDPSLCRQGEDYYIATSTFEWFPGVRIYHSRDLKNWSLVSTPLDRVSMLDMKGNPDSGGIWAPCLSYADGKFWLLYTDVKIVDSPWKNGRNFLVTAPSIEGPWSEPIPMGNGGFDPSLFHDDDGRKYYIYRPWGPRHHSNPHNTIVLQAFDPQTGTLSPERKTLFTGTPLCYTEGAHLYRHAGWYYLMVAEGGTSYEHAVVVLRSKNIDGPYELHPDVTMMTSWHLPENPLQKSGHGSLLQTHTGEWYMAYLTSRPLRLPGVPLLASGGRGYCPLGRETGIARIEWRDGWPYVEGGKHAQLTVKGPQVAEQPAAVPGNWRDDFDASSLDPELQTLRIPFDDTLGSLTARPGFLRLYGNDSLNSTFTQSTVARRWQHFAFRAETRMEFSPVHFQQSAGLTCYYNSKNWSYCFVDYEEGQGRTIKVIQLDHNVPSWPLHEQPIPVPEHAESVWLRVDVDTLVYRYSYSFDGETWHTVPVTYEAWKLSDDYIGGRGFFTGAFVGLHCEDISGDGCYADFDYFTYEPV
As to B2, in data set [2], the β-xylosidase activity result is listed as “exhibited β-xylosidase activity” and the xylosyl-xylitol hydrolase activity result is on record as “exhibited xylosyl-xylitol hydrolase activity”.

B3: B. subtilis GH43-7: GH43 enzyme from bacteria Bacillus subtilis, homologous to GH43-7 (protein, listed as Bacillus subtilis)
chain: MKITNPVLKGFNPDPSICRAGEDYYIAVSTFEWFPGVQIHHSKDLVNWHLVAHPLQRVSQLDMKGNPNSGGVWAPCLSYSDGKFWLIYTDVKVVDGAWKDCHNYLVTCETINGDWSEPIKLNSSGFDASLFHDTDGKKYLLNMLWDHRIDRHSFGGIVIQEYSDKEQKLIGKPKVIFEGTDRKLTEAPHLYHIGNYYYLLTAEGGTRYEHAATIARSANIEGPYEVHPDNPILTSWHDPGNPLQKCGHASIVQTHTDEWYLAHLTGRPIHPDDDSIFQQRGYCPLGRETAIQKLYWKDEWPYVVGGKEGSLEVDAPSIPETIFEATYPEVDEFEDSTLNINFQTLRIPFTNELGSLTQAPNHLRLFGHESLTSTFTQAFVARRWQSLHFEAETAVEFYPENFQQAAGLVNYYNTENWTALQVTHDEELGRILELTICDNFSFSQPLNNKIVIPREVKYVYLRVNIEKDKYYYFYSFNKEDWHKIDIALESKKLSDDYIRGGGFFTGAFVGMQCQDTGGNHIPADFRYFRYKEK
In the case of B3, in data set [2], the β-xylosidase activity result is “exhibited β-xylosidase activity” and the xylosyl-xylitol hydrolase activity entry was “exhibited xylosyl-xylitol hydrolase activity”.

B4: GH43-7: second putative intracellular β-xylosidase from N. crassa with xylosyl-xylitol hydrolase activity (protein)
chain: MPLVKNPILPGFNPDPSVLRVGQDYYIATSTFEWYPGVQIHHSTDLANWTLLTRPLNRKSQLDMRGDPDSCGVWAPCLSHDGDKFWLVYTDVKRKDGSFKDAHNFIVWADKIDGEWSDPVYVNSSGFDPSLFHDPDSGKKYFVNMLWDHRRRPLLFAGIAVQEWDAKTKKLVGERKNVYQGTELALAEAPHVYKRNGWYYLLIAEGGTGYEHACTLARSKDIWGPYKTHPEKHVLTSKDHPRAALQRAGHGDIVEIEDGRTYLVHLTGRPTTQLRRCVLGRETAIQECYWKDDWLYVKNGPVPSLWVDLLGERDESKYWEEKRYTFKDGLHKDFQWLRTPETERIFNVKDGKLTLIGREAIGSWFEQALVARRQEHFSYDAETVIDFSPTDERQFAGLTAYYCRYNFFYLTVTAHSDGQRELLIMSSEASWPIGNLNTPYVPYVQIPNEGKVKLALTIRGNQLQFYYAVLDSGDEELKKIGPVFDASIVSDECGGHQQHGSFTGAFVGVAASDLNGLAAEAKFDYLLYKPVKNQQDAYVRDNE
modifications: N. crassa
As to B4, in data set [3] (xylobiose substrate), the β-xylosidase activity entry is recorded as “weak β-xylosidase activity”. Besides, in data set [3] (xylosyl-xylitol substrate), the “hydrolysis of xylosyl-xylitol into xylose and xylitol” value is given as “rapidly hydrolyzed”.
